Read-outs that look alike come from different tables or passages of the source.

Assay [1] deals with T1, human FcγRIIC expressed on CHO cells (human, UniProt P31995 43-323).
T1 construct: whole, on cells
T1 sequence (looked up): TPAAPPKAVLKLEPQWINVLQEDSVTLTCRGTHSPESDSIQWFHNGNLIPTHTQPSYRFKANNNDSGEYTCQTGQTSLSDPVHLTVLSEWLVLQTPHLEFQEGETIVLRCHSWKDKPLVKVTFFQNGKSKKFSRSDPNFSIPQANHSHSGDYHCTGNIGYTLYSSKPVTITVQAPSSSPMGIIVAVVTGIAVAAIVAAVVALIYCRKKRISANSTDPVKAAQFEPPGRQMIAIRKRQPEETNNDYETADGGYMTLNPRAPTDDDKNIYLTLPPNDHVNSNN
Nature of the assay: FACS, CHO cells expressing FcγRIIC. Background: Flow cytometry measures light scatter and fluorescence of single cells or particles in a stream.

Assay [2] has as its target T2, human FcγRI expressed on CHO cells (human, UniProt P12314 16-374).
T2 construct: whole, on cells
Briefly: FACS, CHO cells expressing FcγRI. The method, then: For FACS analysis of the IgG mutants' binding to different FcγRs, FcγR overexpressing CHO cells were harvested using trypsin-EDTA and were suspended in cold staining buffer (3% BSA in PBS). Test IgG mutants, which were diluted in staining buffer, were added into the cells. The mixture was incubated 4° C. for 2 hours, and then washed twice with cold staining buffer and re-suspended in PE-labeled anti-human IgG followed by incubation at 4° C. for 2 hours. The mixture was washed twice with staining buffer and re-suspended in 2% PFA in PBS for FACS.

The target of assay [3] is T3, human FcRIIB/C protein (MednaBio, E1034) (human, UniProt P31994 43-217, limits assumed).
T3 construct: Bought as FcRIIB/C; also called FcγRIIB; CD32B
T3 sequence (looked up): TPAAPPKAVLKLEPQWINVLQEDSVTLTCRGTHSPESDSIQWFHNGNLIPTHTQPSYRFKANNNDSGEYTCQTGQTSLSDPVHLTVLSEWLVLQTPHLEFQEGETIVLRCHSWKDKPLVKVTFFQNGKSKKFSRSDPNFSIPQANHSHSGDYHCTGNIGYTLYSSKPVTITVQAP
Briefly: BLI. A digest of the protocol:
(§1)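 On an Octet Red96 System, anti-penta-HIS biosensors loaded with commercial human Fc receptor proteins were dipped into test IgG diluted 1:3 over 8 points from 300 nM. Fcγ receptor runs used pH 7.2 and FcRn runs used pH 6. Global fitting of these biolayer interferometry data gave the values for Kd, kon and koff, using a 1:1 binding model.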
For orientation: In BLI a coated tip is dipped into the sample, and binding shifts an interference pattern.

In assay [4] the target is T4, human FcRIIA protein (MednaBio, E1033) (human, UniProt P12318 34-218, limits assumed).
T4 construct: Bought; also called FcγRIIA
T4 sequence (looked up): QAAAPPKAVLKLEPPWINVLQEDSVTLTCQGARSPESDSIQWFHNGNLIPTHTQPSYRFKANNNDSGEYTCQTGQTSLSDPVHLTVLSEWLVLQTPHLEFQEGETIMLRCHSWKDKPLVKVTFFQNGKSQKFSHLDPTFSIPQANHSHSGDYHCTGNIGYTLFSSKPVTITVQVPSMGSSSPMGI
Briefly: BLI. A digest of the protocol: as §1

The target in assay [5] is T5, human FcRI protein (MednaBio, E1031) (human, UniProt P12314 16-288, limits assumed).
T5 construct: Bought; loaded on anti-penta-HIS biosensors; also called FcγRI
Briefly: BLI. A digest of the protocol:
as §1

Assay [6] addresses T6, human FcRn protein (MednaBio, E1032) (human, UniProt P55899 24-297; P61769 21-119).
T6 construct: Bought; assays at pH 6
Nature of the assay: BLI. A digest of the protocol:
as §1

The target in assay [7] is T7, human FcRIIIB protein (MednaBio, E1037) (human, UniProt O75015 17-200).
T7 construct: Bought; also called FcγRIIIB; FcgRIIIB
Nature of the assay: BLI. A digest of the protocol:
as §1

In assay [8] the target is T8, human FcRIIIA-V158 protein (MednaBio, E1035) (human, UniProt P08637 17-208).
T8 construct: Bought; also called FcγRIIIA(V); FcgRIIIA(V)
Briefly: BLI. Put shortly:
as §1

Assay [9] deals with T9, human FcRIIIA-F158 protein (MednaBio, E1036) (human, UniProt P08637 17-208).
T9 construct: Bought; also called FcγRIIIA(F)
Nature of the assay: BLI. Put shortly: as §1

The target of assay [10] is T3, human FcRIIB/C protein (MednaBio, E1034). Nature of the assay: BLI. The procedure: (§2) These IgG mutants were tested for binding to a panel of human Fc receptors (FcRs), including FcRn, using the Octet Red96 System (ForteBio, Model #Red96). Human FcR proteins were purchased commercially (FcRn, MednaBio, E1032; FcRI, MednaBio, E1031; FcRIIA, MednaBio, E1033; FcRIIB/C, MednaBio, E1034; FcRIIIA-F158, MednaBio, E1036; FcRIIIA-V158, MednaBio, E1035; FcRIIIB, MednaBio, E1037). All Fey receptor assays were performed at pH 7.2; all FcRn assays were performed at pH 6. The Fey receptors were loaded onto anti-penta-HIS1K (ForteBio, Cat #18-5122) biosensors at a concentration of 20 μg/mL. The loaded biosensors was then be dipped into an 8-point 1:3 dilution series of the test IgG molecules (including controls and the mutants described herein) in PBS with 0.1% BSA, 0.02% Tween-20 (pH 7.2) at a starting concentration of 300 nM. Kinetic analysis was performed using a 1:1 binding model and global fitting.
The source holds these as a separate data set.

Assay [11] addresses T4, human FcRIIA protein (MednaBio, E1033). Briefly: BLI. The method, then: as §2
The source holds these as a separate data set.

The target in assay [12] is T5, human FcRI protein (MednaBio, E1031). Nature of the assay: BLI. The method, then: as §2
The source holds these as a separate data set.

The target of assay [13] is T6, human FcRn protein (MednaBio, E1032). Nature of the assay: BLI. The procedure: as §2
The source holds these as a separate data set.

In assay [14] the target is T7, human FcRIIIB protein (MednaBio, E1037). Nature of the assay: BLI. The procedure:
as §2
The source holds these as a separate data set.

Assay [15] concerns the target T8, human FcRIIIA-V158 protein (MednaBio, …). Nature of the assay: BLI. The method, then:
as §2
This is another data set of the same source.

The target of assay [16] is T9, human FcRIIIA-F158 protein (MednaBio, …). Nature of the assay: BLI. The method, then: as §2
This is another data set of the same source.

T8 sequence (P08637 17-208 F176V): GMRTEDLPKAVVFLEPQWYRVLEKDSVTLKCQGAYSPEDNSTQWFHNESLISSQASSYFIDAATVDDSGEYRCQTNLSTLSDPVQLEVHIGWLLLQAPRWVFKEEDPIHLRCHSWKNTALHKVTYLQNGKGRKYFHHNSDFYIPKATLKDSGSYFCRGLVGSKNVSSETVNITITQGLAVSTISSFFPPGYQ
T5 sequence (P12314 16-288 limits assumed): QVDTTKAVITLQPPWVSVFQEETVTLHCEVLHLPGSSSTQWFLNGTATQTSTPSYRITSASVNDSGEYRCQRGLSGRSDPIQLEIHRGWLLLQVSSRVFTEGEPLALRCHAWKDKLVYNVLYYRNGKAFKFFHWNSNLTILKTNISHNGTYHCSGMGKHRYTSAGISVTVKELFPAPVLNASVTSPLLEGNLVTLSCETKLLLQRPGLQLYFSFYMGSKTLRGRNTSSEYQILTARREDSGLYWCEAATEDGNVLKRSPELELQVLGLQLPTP
T9 sequence (P08637 17-208 limits assumed): as the sequence (P08637 17-208 F176V) above, with V160F counted along it
T7 sequence (O75015 17-200 limits assumed): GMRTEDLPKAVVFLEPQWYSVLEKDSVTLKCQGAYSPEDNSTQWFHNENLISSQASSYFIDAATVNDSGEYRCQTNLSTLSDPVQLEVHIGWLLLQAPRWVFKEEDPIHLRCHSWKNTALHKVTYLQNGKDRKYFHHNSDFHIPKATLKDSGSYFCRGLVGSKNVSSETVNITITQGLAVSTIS
T6 sequence (P55899 24-297 limits assumed, form in doubt, chain 1 of 2): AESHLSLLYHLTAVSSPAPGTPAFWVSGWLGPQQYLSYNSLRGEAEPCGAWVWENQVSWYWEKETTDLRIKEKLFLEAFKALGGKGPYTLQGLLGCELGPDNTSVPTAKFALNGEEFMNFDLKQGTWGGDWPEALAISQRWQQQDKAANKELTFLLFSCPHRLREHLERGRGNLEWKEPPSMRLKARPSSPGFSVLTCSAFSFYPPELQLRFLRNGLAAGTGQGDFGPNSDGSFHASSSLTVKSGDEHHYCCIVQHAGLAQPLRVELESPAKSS
T6 sequence (P61769 21-119 limits assumed, form in doubt, chain 2 of 2): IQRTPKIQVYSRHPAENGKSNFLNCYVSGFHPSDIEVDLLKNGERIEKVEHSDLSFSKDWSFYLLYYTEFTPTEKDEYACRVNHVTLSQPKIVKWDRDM
T2 sequence (P12314 16-374): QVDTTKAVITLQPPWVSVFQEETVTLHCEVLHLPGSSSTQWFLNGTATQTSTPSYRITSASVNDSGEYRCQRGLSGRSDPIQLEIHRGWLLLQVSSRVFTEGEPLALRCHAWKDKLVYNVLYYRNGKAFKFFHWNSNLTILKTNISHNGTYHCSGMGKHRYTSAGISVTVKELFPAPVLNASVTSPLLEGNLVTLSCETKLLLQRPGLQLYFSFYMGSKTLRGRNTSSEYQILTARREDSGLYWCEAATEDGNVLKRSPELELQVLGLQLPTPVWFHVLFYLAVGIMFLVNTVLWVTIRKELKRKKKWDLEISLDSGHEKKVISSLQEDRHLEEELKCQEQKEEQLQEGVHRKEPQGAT

B1: anti-CD137 IgG2 with Fc variant G2m7 (antibody)
heavy: EVQLVQSGAEVKKPGESLRISCKGSGYSFSTYWISWVRQMPGKGLEWMGKIYPGDSYTNYSPSFQGQVTISADKSISTAYLQWSSLKASDTAMYYCARGYGIFDYWGQGTLVTVSSASTKGPSVFPLAPCSRSTSESTAALGCLVKDYFPEPVTVSWNSGALTSGVHTFPAVLQSSGLYSLSSVVTVPSSNFGTQTYTCNVDHKPSNTKVDKTVERKCCVECPPCPAPPVAGPSVFLFPPKPKDTLMISRTPEVTCVVVDVEHEDPEVQFNWYVDGVEVHNAKTKPREEQFNSTFRVVSVLTVVHQDWLNGKEYKCKVSNKGLPAPIEKTISKTKGQPREPQVYTLPPSREEMTKNQVSLTCLVKGFYPSDIAVEWESNGQPENNYKTTPPMLDSDGSFFLYSKLTVDKSRWQQGNVFSCSVMHEALHNHYTQKSLSLSPGK
light: SYELTQPPSVSVSPGQTASITCSGDNIGDQYAHWYQQKPGQSPVLVIYQDKNRPSGIPERFSGSNSGNTATLTISGTQAMDEADYYCATYTGFGSLAVFGGGTKLTVLGQPKAAPSVTLFPPSSEELQANKATLVCLISDFYPGAVTVAWKADSSPVKAGVETTTPSKQSNNKYAASSYLSLTPEQWKSHRSYSCQVTHEGSTVEKTVAPTECS
notes: copies: 2 + 2
The term Kd denotes a measure of binding affinity in units of concentration. Low values mean higher affinity, high ones lower affinity. One may read the koff as the rate constant with which the complex falls apart. A lower koff goes with slow dissociation. A word on the kon: it is the rate constant with which the complex forms. High values mean fast association, low ones slow association. With B1, the binding result in assay [1] is “binds”; in [2] it was “no binding (tested: 10 ug/ml)”; in assay [5] it was “no binding (tested: 300 nM)”; in assay [7], “no binding (tested: 300 nM)”; in [8], “no binding (tested: 300 nM)”; in [9], “no binding (tested: 300 nM)”. Further, the dissociation constant Kd was 170 nM in [3], 120 nM in assay [4] and 5.7 nM in assay [6]. The koff in [3] worked out at 0.052 s⁻¹; in assay [4] it was 0.028 s⁻¹; in assay [6], 0.0052 s⁻¹. Also, the kon in [3] worked out at 310000 M⁻¹ s⁻¹; in assay [4] it was 230000 M⁻¹ s⁻¹; in assay [6], 910000 M⁻¹ s⁻¹.

B2: anti-CD137 IgG2 with Fc variant G2m8 (antibody)
heavy: EVQLVQSGAEVKKPGESLRISCKGSGYSFSTYWISWVRQMPGKGLEWMGKIYPGDSYTNYSPSFQGQVTISADKSISTAYLQWSSLKASDTAMYYCARGYGIFDYWGQGTLVTVSSASTKGPSVFPLAPCSRSTSESTAALGCLVKDYFPEPVTVSWNSGALTSGVHTFPAVLQSSGLYSLSSVVTVPSSNFGTQTYTCNVDHKPSNTKVDKTVERKCCVECPPCPAPPVAGPSVFLFPPKPKDTLMISRTPEVTCVVVDVSHEDPEVQFNWYVDGVEVHNAKTKPREEQFNSTFRVVSVLTVVHQDWLNGKEYKCKVSNKGFPAPIEKTISKTKGQPREPQVYTLPPSREEMTKNQVSLTCLVKGFYPSDIAVEWESNGQPENNYKTTPPMLDSDGSFFLYSKLTVDKSRWQQGNVFSCSVMHEALHNHYTQKSLSLSPGK
light: SYELTQPPSVSVSPGQTASITCSGDNIGDQYAHWYQQKPGQSPVLVIYQDKNRPSGIPERFSGSNSGNTATLTISGTQAMDEADYYCATYTGFGSLAVFGGGTKLTVLGQPKAAPSVTLFPPSSEELQANKATLVCLISDFYPGAVTVAWKADSSPVKAGVETTTPSKQSNNKYAASSYLSLTPEQWKSHRSYSCQVTHEGSTVEKTVAPTECS
notes: copies: 2 + 2
As for B2, the binding result in [2] is on record as “no binding (tested: 10 ug/ml)”; in [5], “no binding (tested: 300 nM)”; in assay [7] it was “no binding (tested: 300 nM)”; in assay [8], “no binding (tested: 300 nM)”; in assay [9], “no binding (tested: 300 nM)”. In addition, the Kd is 500 nM in assay [3], 93 nM in [4] and 6.3 nM in assay [6]. Further, the koff in assay [3] turned out to be 0.26 s⁻¹; in assay [4] it was 0.092 s⁻¹; in assay [6], 0.0053 s⁻¹. Besides, the kon in assay [3] turned out to be 510000 M⁻¹ s⁻¹; in [4], 990000 M⁻¹ s⁻¹; in [6], 850000 M⁻¹ s⁻¹.

B3: anti-CD137 IgG4 with Fc variant G4m1 (antibody)
heavy: EVQLVQSGAEVKKPGESLRISCKGSGYSFSTYWISWVRQMPGKGLEWMGKIYPGDSYTNYSPSFQGQVTISADKSISTAYLQWSSLKASDTAMYYCARGYGIFDYWGQGTLVTVSSASTKGPSVFPLAPCSRSTSESTAALGCLVKDYFPEPVTVSWNSGALTSGVHTFPAVLQSSGLYSLSSVVTVPSSSLGTKTYTCNVDHKPSNTKVDKRVESKYGPPCPPCPAPEFLSVFLFPPKPKDTLMISRTPEVTCVVVDVSQEDPEVQFNWYVDGVEVHNAKTKPREEQFNSTYRVVSVLTVLHQDWLNGKEYKCKVSNKGLPSSIEKTISKAKGQPREPQVYTLPPSQEEMTKNQVSLTCLVKGFYPSDIAVEWESNGQPENNYKTTPPVLDSDGSFFLYSRLTVDKSRWQEGNVFSCSVMHEALHNHYTQKSLSLSLGK
light: SYELTQPPSVSVSPGQTASITCSGDNIGDQYAHWYQQKPGQSPVLVIYQDKNRPSGIPERFSGSNSGNTATLTISGTQAMDEADYYCATYTGFGSLAVFGGGTKLTVLGQPKAAPSVTLFPPSSEELQANKATLVCLISDFYPGAVTVAWKADSSPVKAGVETTTPSKQSNNKYAASSYLSLTPEQWKSHRSYSCQVTHEGSTVEKTVAPTECS
notes: copies: 2 + 2
As to B3, the Kd in assay [10] amounted to 250 nM; in assay [11], 450 nM; in assay [12] it was 130 nM; in [13], 19 nM. The koff worked out at 0.11 s⁻¹ in [10], 0.11 s⁻¹ in assay [11], 0.097 s⁻¹ in assay [12] and 0.013 s⁻¹ in assay [13]. For the same molecule, the kon in assay [10] was 420000 M⁻¹ s⁻¹; in assay [11], 240000 M⁻¹ s⁻¹; in assay [12] it was 740000 M⁻¹ s⁻¹; in assay [13] it was 690000 M⁻¹ s⁻¹. The binding result in assay [14], in assay [15] and in assay [16] was “no binding (tested: 300 nM)” in each case.

(Values after patent US20200392227A1 (LYVGEN BIOPHARMA, published 2020).)
